A protein production outcome set (Wang et al. 2014)

Experiment: label from the status in PepcDB records

| Sequence | protein production |
| --- | --- |
| MTSSFTDYCKFFNRILSEVQETQEQAIIKGAHLVSEAVMNGGRFYVFGSGHSHMIAEEIYNRAGGLALVTAILPPELMLHERPNKSTYLERIEGLSKSYLKLHQVTNKDVIMIISNSGRNTVPVEMAIESRNIGAKVIAMTSMKHSQKVTSRHKSGKKLYEYADVVLDNGAPVGDAGFQIANSEIYSGATSDSIGCFLAQALIVETLHLLVQQGFEPPVFKSSNVDGADLYNDKIFNEYVKW | not failed |
| MTSLSSKRVAETLDKLHAEAEAADRALMAEMMAQAERSGETLKDLAAKFVDEERLNYRTTYQEHADHFLAISSAYGRFLYAIARARRATRIVEFGTSMGISTIYLAAALRDNGGGRLIGSEIEPTKVARARAHLEATGLADLVDIREGDALDTLKDVGCEVDILSIDGAFSLYLPVLKLIEPRLTPGAVILGENAFAQDYLDYVRAPANGYFSRSLDIDEGRGNEFTVRVG | failed |
| MKNQFVKCISQLLFLLLIIGVLPVYAQKKSKEKIYRLPDDLETLAGDPALLKKPEGLTVAAYAFPNYHASALHNKIYSQGWTEYNLIRSARPWFEGHQQPRTPLLGELDESKPSTWETYNKLCKQSGIDVLIWDWYWYDGKPCLHEALENGFLEASNTKDVKFACMWTNHPWYVLYPTKRTDGSNAYPPSFDAPDFSKEECWKSLSYMISRYCHLENYWRIDDKPVICIWDARRLESKLGIAGVKQLFAELTDYAKKLGHKGLHFHVTGFSCGNMKEEGYDTVGSYNPMDWIAGRFQPKEIELPDYGTVAADVAFKLWDEHHGQFDIPYVPAVAPGWDSTPRYIAPANRPAKADRSQWPGCTIFKNENPASFKAFVQSSFVYLNKHPEVPRILTIACFNEWSEGHYLLPDNRFGYGMLDALGEALGKEGNHEKHGKLEHHHHHH | not failed |
| MLSIMTFREFMKENGYEVKTKFWEDFSLAERFGLSAIQDTFNRAFKEWKEDYEFLTELVLVLNHKIWQYHEKRPEFAELYNTLEEQTDQYAMENLKDEELSYFFDVTDLEHHHHHH | not failed |
| MSLDKAIKEVRGNGKLKVAVFSDPDCPFCKRLEHEFEKMTDVTVYSFMMPIAGLHPDAARKAQILWCQPDRAKAWTDWMRKGKFPVGGSICDNPVAETTSLGEQFGFNGTPTLVFPNGRTQSGYSPMPQLEEIIRKNQQEGHHHHHH | not failed |
| MSLDSPLYGRSFADDKMRELFSAQSFISRCVETEVALARAQARLGIIPEDAAAGITAAARTFAPEMERLRDDTEIVGYPILPLVEQLSAHAGEAGKYLHWGATTQDIMDTATVLQIRDGLALISRRIESVRKALAALARNHRDTPMAGRTHLQHALPVTFGYKAAVWLSAFDRHAARLEEISPRVLVVEFSGASGTLASLGTRGLDVQRELARELNLGVPSITWHSARDAVAETVQFLALVSGSLGKLAMDISIMMTTELGEVAEPFVRHRGASSTMPQKQNPVSCELILAGARIVRNHATSMLDAMIHDFERATGPWHLEWSAVPEGFAVASGILYQAEFMLGGLQVFPDRMRENLDHSRGLIVAEAVMMALAPHTGRKEAHDIVYLGCRRAVEDKTGLFEVLRTMPEVAKPLGEEALRDLTDPRNYLGSAGAMVDNVLGGREGHHHHHH | not failed |
| TPLSLTLDHWSEIRSRAHNLSVEIKKGPWRTFCASEWPTFDVGWPPEGTFDLTVIFEVKAIVFQDGPGSHPDQQPYITVWQDLVQNSPPWIK | not failed |
| MLLSPNLLAEGQSRYISDNVFLYLLNGPGTDYRILGSIEAGQPITLQGETQGDYSKIVDHKGREGWVQTNLISSTPSFREQVSTLTNELNEAKAKLAEVLNSTGNQTDEVAELKAQLAEAQTMLAKANQERENLKMAVDHSAQETQFALWREGGIIAAAGLVVGVILVYLPRPQRRNKKRWMLEHHHHHH | failed |
| FETRAKGRSGEALRSLLNLGAKDAAIIRDNREVRIPIQSLQVGDVFVVRPGEKIATDGVVVEGTSAVDQSMITGESVPVEVAQGSHVTGATMNTSGRLLVTAQRVGADTTLAAMGRLVAEAQSNKAPVQKLVDKISQ | failed |
| MMFGAIIQQIVLGISLAAPVGPINIEMLKRGIERGFWHAWVVGIGGMTADILFMLLIYFGLSSLFMYTYVQAFMYCTGFFLLFYLGFQSVKQGISQSNMEYKKEEVGGLKQSFMAGFLIAISNPLNLVFWFGIYGSTLSSLLTKVTKQEAFLYSLCIIVGIILWNVNIAFSVHFGRTLLKQKALGYITAGAGIILVGYSIHFAYKALQLFT | failed |
| MIKSTNIQAIGSGIMHQINNVYSLTPLSLPMELTPSCNEFYLKTWSEWEKNGTPGEQRNIAFNRLKICLQNQEAELNLSELDLKTLPDLPPQITTLEIRKNLLTHLPDLPPMLKVIHAQFNQLESLPALPETLEELNAGDNKIKELPFLPENLTHLRVHNNRLHILPLLPPELKLLVVSGNRLDSIPPFPDKLEGLALANNFIEQLPELPFSMNRAVLMNNNLTTLPESVLRLAQNAFVNVAGNPL | failed |
| MAGQTEQVLNGVLEDIEHGRLGPGDLLEEAALTERHGVSRTPVREALIQLETQGLIRRLPRKGAVVFKPTLEEFLAILEVHARLEGQAAGLAARRMNATQAAELEAVVAACEAHARDKGDGDPFGYYRLNLRFHETVALGAGNPYLVEMIKTHARKLLAYYRARYSYPGSIPASAREHRQIATLIFDRRREEAEAAMIRHVQFDQVTVMDLLAALG | failed |
| MLELFLKEEWTTEAKEILRPFGQKKLIGIQMGASNRSRQWFVERWIELAKRIIERDEEVVIVFVGSKNELEEISLVAQALPQDRVFISAGRLSLGAAAALIGELGLLFTPDTGPLHIAVALRVKTISLFAVANPKNSLPDYDQSLHRYIKVDRCCEPCVGKRCAYQKCMEAIGVDEVYEEYKKLQELEHHHHHH | not failed |
| MAYRKQLTRLKAPYLKRILLDPGRVEDWEKYPWNLPLFRGREFELEFTAPITIIVGENGTGKSTLLEAIGALAGYDEAGGGKGYMPVDHSRAIDKSGAALADNFRCHWLPKVTAGWFFRAESFYSVARYLDEAARESGATPPDFLSWSHGEGFIRFFEERCRRQGIYILDEPESALSPSRQIELLKMLRRMDQSGTAQVIMATHSPLLMACPGARLFRISRFGLEPADFRDTDHFRMLRDFSNDPDGFLAEALYEDEA | failed |
| MKGSRKGESRAKESKPREPGTRRCAKCGRLDFILKKKMGIKSGFTFWNLVFLLTLSCVKGFIYTCGGTLKGLNGTIESPGFPYGYPNGANCTWVIIAEERNRIQIVFQSFALEEEYDYLSLYDGHPHPTNFRTRLTGFHLPPPVTSTKSVFSLRLTSDFAVSAHGFKVYYEELQSSSCGNPGVPPKGVLYGTRFDVGDKIRYSCVTGYILDGHPQLTCIANSVNTASWDFPVPICRAEDACGGTMRGSSGIISSPGFPNEYHNNADCTWTIVAEPGDTISLIFTDFQMEEKYDYLEIEGSEPPTIWLSGMNIPPPIISNKNWLRLHFVTDSNHRYRGFSAPYQVKKAIDFKSRGFKLFPGKDNSNKFSLLNEGGIKTASNLCPDPGEPENGKRFGSDFR | failed |
| MGHHHHHHSHMSYARVRAVVMTRDDSSGGWLPLGGSGLSSVTVFKVPHQEENGCADFFIRGERLRDKMVVLECMLKKDLIYNKVTPTFHHWKIDDKKFGLTFQSPADARAFDRGIRRAIEDISQGCPESK | not failed |
| MATFMTEDFLLKNDIARTLYHKYAAPMPIYDFHCHLSPQEIADDRRFDNLGQIWLEGDHYKWRALRSAGVDESLITGKETSDYEKYMAWANTVPKTLGNPLYHWTHLELRRPFGITGTLFGPDTAESIWTQCNEKLATPAFSARGIMQQMNVRMVGTTDDPIDSLEYHRQIAADDSIDIEVAPSWRPDKVFKIELDGFVDYLRKLEAAADVSITRFDDLRQALTRRLDHFAACGCRASDHGIETLRFAPVPDDAQLDAILGKRLAGETLSELEIAQFTTAVLVWLGRQYAARGWVMQLHIGAIRNNNTRMFRLLGPDTGFDSIGDNNISWALSRLLDSMDVTNELPKTILYCLNPRDNEVLATMIGNFQGPGIAGKVQFGSGWWFNDQKDGMLRQLEQLSQMGLLSQFVGMLTDSRSFLSYTRHEYFRRILCNLLGQWAQDGEIPDDEAMLSRMVQDICFNNAQRYFTIK | not failed |
| QELKGKYMKTPTGYLMVLRHGDNVLQNLEQLARDEHIPSASFVGIGFMSEATFGFYDFGRKQFDPKTYRNVEMANMTGSIAWKEGKPSIHAHGTVTDGTFQGAGGHLLGLTVGTGSCEITVTVYPQRLDRFVDPEIQANVLGLPQQ | not failed |
